Earlier results as cited in paper PMC3867676.
pKd: −log10 of the molar value.

Tests used:
[1] = molecular target: RANKL (Homo sapiens) (UniProt O14788)
[2] = molecular target: TRAIL (Homo sapiens) (UniProt P50591)
Sequence of UniProt P50591 (P50591 whole entry): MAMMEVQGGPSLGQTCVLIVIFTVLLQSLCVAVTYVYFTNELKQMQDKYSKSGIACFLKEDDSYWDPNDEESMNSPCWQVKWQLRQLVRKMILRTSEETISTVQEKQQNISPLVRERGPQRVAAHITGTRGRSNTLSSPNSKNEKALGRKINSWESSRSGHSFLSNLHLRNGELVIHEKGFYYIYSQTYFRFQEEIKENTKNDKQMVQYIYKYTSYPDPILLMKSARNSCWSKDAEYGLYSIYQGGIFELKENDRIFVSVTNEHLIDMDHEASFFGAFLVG

Sequence of UniProt O14788 (O14788 140-317): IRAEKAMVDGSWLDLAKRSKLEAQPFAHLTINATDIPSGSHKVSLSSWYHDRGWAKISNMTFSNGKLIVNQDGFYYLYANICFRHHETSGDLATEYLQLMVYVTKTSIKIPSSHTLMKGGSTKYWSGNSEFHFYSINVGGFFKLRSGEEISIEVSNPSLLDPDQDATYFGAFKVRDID

pKd [1]: 7.64
pKd [2]: 7.35
Substance: OPG (from UniProt O00300)
